Measured values published in paper PMC10786891, “Massively parallel profiling of RNA-targeting CRISPR-Cas13d”.
Positions count from the first letter of the chain named. Names may count otherwise.

B1: target 3 insG 3' of 5,insA 3' of 2 (mixed)
RNA 1: CACCCGUGCAAAAUUGCAGGGGUCUAAAACGACCUGAAUAUUUCAGAUCAAA
RNA 2: GGGAAUGGAUCCACAUCUACGAAUUCGUUUUUGAUCUGAAAUAUUCAGGGUACUGCAGAUCGGAAGAGCACACGU
B2: target 3 A18U,U22A (mixed)
RNA 1: B1 RNA 1
RNA 2: GGGAAUGGAUCCACAUCUACGAAUUCGUUAUUGUUCUGAAAUAUUCAGGUCUGCAGAUCGGAAGAGCACACGU
B3: target 3 C1G,A9U (mixed)
RNA 1: B1 RNA 1
RNA 2: B2 RNA 2 with A30U, U34A, A43U, C51G
B4: target 3 C1A,U2C (mixed)
RNA 1: B1 RNA 1
RNA 2: B2 RNA 2 with A30U, U34A, U50C, C51A
B5: target 3 C1G,G3C (mixed)
RNA 1: B1 RNA 1
RNA 2: B2 RNA 2 with A30U, U34A, G49C, C51G
B6: target 3 insG 3' of 6,insA 3' of 6 (mixed)
RNA 1: B1 RNA 1
RNA 2: B1 RNA 2 with A47G, G48A, G49A, U51G, A52U
B7: target 3 A9U (mixed)
RNA 1: B1 RNA 1
RNA 2: B2 RNA 2 with A30U, U34A, A43U
B8: target 3 insC 3' of 11,insG 3' of 7 (mixed)
RNA 1: B1 RNA 1
RNA 2: B1 RNA 2 with U42C, A43U, U44A, C46U, A47G, G48C, G49A, U51G, A52U
B9: target 3 insC 3' of 9,insU 3' of 5 (mixed)
RNA 1: B1 RNA 1
RNA 2: B1 RNA 2 with U44C, C46U, A47C, G48A, G49U, U51G, A52U
B10: target 3 insC 3' of 9,insU 3' of 3 (mixed)
RNA 1: B1 RNA 1
RNA 2: B1 RNA 2 with U44C, C46U, A47C, G48A, A52U
B11: target 3 G3C (mixed)
RNA 1: B1 RNA 1
RNA 2: B2 RNA 2 with A30U, U34A, G49C
B12: target 3 U2G,U20C (mixed)
RNA 1: B1 RNA 1
RNA 2: B2 RNA 2 with A30U, U32C, U34A, U50G
B13: target 3 C1A,G3C (mixed)
RNA 1: B1 RNA 1
RNA 2: B2 RNA 2 with A30U, U34A, G49C, C51A
B14: target 3 insA 3' of 2,insG 3' of 1 (mixed)
RNA 1: B1 RNA 1
RNA 2: B1 RNA 2 with G50U, U51A, A52C, C53G
B15: target 3 U7A,A18G (mixed)
RNA 1: B1 RNA 1
RNA 2: B2 RNA 2 with A30U, U34G, U45A
B16: target 3 U20A,U21G (mixed)
RNA 1: B1 RNA 1
RNA 2: B2 RNA 2 with A30U, U31G, U32A, U34A
B17: target 3 insC 3' of 9,insC 3' of 3 (mixed)
RNA 1: B1 RNA 1
RNA 2: B1 RNA 2 with U44C, C46U, A47C, G48A, U51C, A52U
B18: target 3 C1U,G3A (mixed)
RNA 1: B1 RNA 1
RNA 2: B2 RNA 2 with A30U, U34A, G49A, C51U
B19: target 3 insC 3' of 7,insA 3' of 7 (mixed)
RNA 1: B1 RNA 1
RNA 2: B1 RNA 2 with G48C, G49A, U51G, A52U
B20: target 3 del6 (mixed)
RNA 1: B1 RNA 1
RNA 2: GGGAAUGGAUCCACAUCUACGAAUUCGUUUUUGAUCUGAAAUAUUAGGUCUGCAGAUCGGAAGAGCACACGU
B21: target 3 insG 3' of 8,insG 3' of 6 (mixed)
RNA 1: B1 RNA 1
RNA 2: B1 RNA 2 with U45G, C46U, A47C, G49A, U51G, A52U
B22: target 3 U2G,U22C (mixed)
RNA 1: B1 RNA 1
RNA 2: B2 RNA 2 with A30C, U34A, U50G
B23: target 3 G3C,A9G (mixed)
RNA 1: B1 RNA 1
RNA 2: B2 RNA 2 with A30U, U34A, A43G, G49C
B24: target 3 insU 3' of 22,insG 3' of 1 (mixed)
RNA 1: B1 RNA 1
RNA 2: GGGAAUGGAUCCACAUCUACGAAUUCGUUUUUUGAUCUGAAAUAUUCAGGUCGUGCAGAUCGGAAGAGCACACGU
B25: target 3 insC 3' of 7,insA 3' of 3 (mixed)
RNA 1: B1 RNA 1
RNA 2: B1 RNA 2 with A47C, G48A, U51A, A52U
B26: target 3 insA 3' of 2,insU 3' of 1 (mixed)
RNA 1: B1 RNA 1
RNA 2: B1 RNA 2 with G50U, U51A, A52C, C53U
B27: target 3 del1,del15 (mixed)
RNA 1: B1 RNA 1
RNA 2: GGGAAUGGAUCCACAUCUACGAAUUCGUUUUUGAUCGAAAUAUUCAGGUUGCAGAUCGGAAGAGCACACGU
B28: target 3 U2G,G4A (mixed)
RNA 1: B1 RNA 1
RNA 2: B2 RNA 2 with A30U, U34A, G48A, U50G
B29: target 3 insG 3' of 2,insG 3' of 2 (mixed)
RNA 1: B1 RNA 1
RNA 2: B1 RNA 2 with G50U, U51G, A52G
B30: target 3 insU 3' of 9,insA 3' of 7 (mixed)
RNA 1: B1 RNA 1
RNA 2: B1 RNA 2 with C46U, G48C, G49A, U51G, A52U
B31: target 1 insG 3' of 10,insG 3' of 10 (mixed)
RNA 1: CACCCGUGCAAAAAUGCAGGGGUCUAAAACUGAGCGGAUAACCUCUCUAUGG
RNA 2: GGGAAUGGAUCCACAUCUACGAAUUCGUACCAUAGAGAGGUUGGAUCCGCUCACCGAGAUCGGAAGAGCACACGU
B32: target 1 insG 3' of 21,insA 3' of 3 (mixed)
RNA 1: B31 RNA 1
RNA 2: GGGAAUGGAUCCACAUCUACGAAUUCGUACCGAUAGAGAGGUUAUCCGCUACACCGAGAUCGGAAGAGCACACGU
B33: target 1 U8A,C22A (mixed)
RNA 1: B31 RNA 1
RNA 2: GGGAAUGGAUCCACAUCUACGAAUUCGUAACAUAGAGAGGUUAACCGCUCACCGAGAUCGGAAGAGCACACGU

Molecular target: T1, EsCas13d, nuclease-dead (Eubacterium siraeum, UniProt B0MS50, R295A;H300A;R849A;H854A)
T1 sequence: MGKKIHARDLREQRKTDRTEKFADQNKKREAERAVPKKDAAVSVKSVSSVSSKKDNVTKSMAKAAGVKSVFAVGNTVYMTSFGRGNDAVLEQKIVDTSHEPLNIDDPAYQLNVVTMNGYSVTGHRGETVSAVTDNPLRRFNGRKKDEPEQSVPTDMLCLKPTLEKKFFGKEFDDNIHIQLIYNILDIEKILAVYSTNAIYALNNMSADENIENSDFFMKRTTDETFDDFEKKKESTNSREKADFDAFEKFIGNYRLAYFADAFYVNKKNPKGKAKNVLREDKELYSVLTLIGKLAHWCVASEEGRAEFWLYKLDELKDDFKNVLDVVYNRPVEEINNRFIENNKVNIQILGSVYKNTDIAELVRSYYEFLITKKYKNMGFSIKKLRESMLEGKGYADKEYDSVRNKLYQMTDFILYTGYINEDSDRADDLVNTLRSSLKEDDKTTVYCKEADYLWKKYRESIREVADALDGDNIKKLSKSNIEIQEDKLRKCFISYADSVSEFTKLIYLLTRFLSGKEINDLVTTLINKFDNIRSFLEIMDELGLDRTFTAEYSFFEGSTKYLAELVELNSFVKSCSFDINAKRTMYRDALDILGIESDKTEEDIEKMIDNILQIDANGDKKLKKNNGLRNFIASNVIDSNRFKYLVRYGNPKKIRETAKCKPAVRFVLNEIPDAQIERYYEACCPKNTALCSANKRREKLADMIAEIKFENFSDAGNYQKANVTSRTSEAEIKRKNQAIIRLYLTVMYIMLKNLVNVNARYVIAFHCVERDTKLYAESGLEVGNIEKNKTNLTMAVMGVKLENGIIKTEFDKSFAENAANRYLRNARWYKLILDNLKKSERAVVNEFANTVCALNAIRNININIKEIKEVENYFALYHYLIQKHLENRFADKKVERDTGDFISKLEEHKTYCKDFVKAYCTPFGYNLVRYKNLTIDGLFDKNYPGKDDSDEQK
Assay: crRNA (strand 1, pre-loaded); Mg2+; 40 mM Tris-HCl pH 7.5, 150 mM NaCl, 6 mM MgCl2, 1 mM DTT, 0.1% Tween-20, 0.2 mg/ml BSA; 25 C; 10 min per concentration, then washed
Details: tags: His6-TwinStrep-SUMO cleaved; N-terminal SNAP kept (SNAP-Surface 488); label: 3' end held by stalled T7 RNA polymerase

Binder	Kd [nM]
B1	39 ± 6
B2	97.5 ± 30.5
B3	100 ± 40
B4	18.6 ± 3.7
B5	26.5 ± 5
B6	8.8 ± 0.75
B7	~120
B8	49 ± 11.5
B9	76.5 ± 12.5
B10	114 ± 29
B11	19.9 ± 1.35
B12	50 ± 19
B13	65.5 ± 29.5
B14	36 ± 9
B15	49 ± 6
B16	98 ± 39.5
B17	88 ± 24.5

Binder	Kd [nM]
B18	45 ± 10.5
B19	11 ± 1.4
B20	38.4 ± 3.55
B21	31.6 ± 2.7
B22	19.8 ± 3.55
B23	55.5 ± 5.5
B24	32.5 ± 5.5
B25	68 ± 14
B26	85.5 ± 20.5
B27	62 ± 18
B28	2.01 ± 0.17
B29	22 ± 2.05
B30	51 ± 10.5
B31	21.8 ± 2.2
B32	54 ± 12
B33	31.1 ± 2.2
